Non-standard residues stand in square brackets, D forms with d. No end group written: not given here. Phe(4-NO2) = N[C@@H](Cc1ccc([N+](=O)[O-])cc1)C(=O)O; Phe(4-COOH) = N[C@@H](Cc1ccc(C(=O)O)cc1)C(=O)O; Bpa = N[C@@H](Cc1ccc(C(=O)c2ccccc2)cc1)C(=O)O; Hyp = O=C(O)[C@@H]1C[C@@H](O)CN1; 0P linker = not defined here; acyl = not defined here; ThA = thiazolylalanine
T1: human angiopoietin-2 protein (human, UniProt O15123 19-496)
T1 construct: bought; also called Ang-2; Ang2
T1 sequence (looked up): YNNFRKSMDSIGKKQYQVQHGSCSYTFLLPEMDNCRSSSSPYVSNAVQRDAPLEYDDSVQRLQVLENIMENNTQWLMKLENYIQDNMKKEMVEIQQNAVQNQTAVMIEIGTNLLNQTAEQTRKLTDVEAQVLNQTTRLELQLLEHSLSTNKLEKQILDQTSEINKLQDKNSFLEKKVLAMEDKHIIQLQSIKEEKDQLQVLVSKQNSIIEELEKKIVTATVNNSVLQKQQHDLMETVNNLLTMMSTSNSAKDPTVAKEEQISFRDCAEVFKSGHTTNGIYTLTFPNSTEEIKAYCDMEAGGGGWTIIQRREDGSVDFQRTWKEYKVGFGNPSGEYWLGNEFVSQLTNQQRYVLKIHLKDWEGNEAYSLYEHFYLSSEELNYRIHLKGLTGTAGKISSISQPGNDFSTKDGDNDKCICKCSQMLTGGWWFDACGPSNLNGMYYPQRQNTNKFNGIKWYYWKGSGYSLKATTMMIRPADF


Experiments:
[1] = biological target: T1, human angiopoietin-2 protein; experiment: competitive ELISA, coated Ang-2, 0.25 nM hTie-2-Fc; T form
Experimental: For competitive ELISA, human angiopoietin-2 protein and Tie-2-Fc (R&D Systems) were reconstituted without carrier protein. Mouse anti-human Tie-2 (Pharmingen) was used as the primary antibody and goat anti-mouse-IgG1-HRP (Pierce) was used as the secondary antibody. TMB substrate from Pierce was used.
High-binding half-well plates were coated with Ang-2 (100 ng/well) in 50 μl PBS and incubated at 4° C. overnight. Plates were washed three times with washing buffer (0.1% Tween 20, PBS, pH 7.4) and blocked with Superblock (Scytek), 100 μl/well at room temperature (“RT”) for 1 hour. After removing the blocking solution, 50 μl of an Ang-2 binding peptide compound (1 uM and 5× serial dilution) in the presence of 0.25 nM hTie-2-Fc using Superblock as diluent was added and incubated at RT for 2 hours. Plates were washed 3 times with washing buffer. Then, 50 ul of 0.1 ug/ml mouse anti-human Tie-2 diluted in Superblock added and incubated at RT for 1 hour. Following incubation, 50 ul of 1:5,000 dilution of goat anti-mouse IgG-HRP in Superblock was then added and incubated at RT for one hour. After washing 3 times, 50 μl (25 μl TMB+25 μl H₂O₂) was added, and incubated for 3-5 minutes. Color development was monitored and stopped with 25 μl of 2 M H₂SO₄. OD450 nm with a correction wavelength of 540 nm was measured.

[2] = biological target: T1, human angiopoietin-2 protein; experiment: competition ELISA, coated Ang-2, competitor compound 43-0P-h38c2 10 ng/mL; T form
Experimental: Recombinant human Ang-2 was coated on microtiter plates at 0.5 μg/mL in 100 μL , overnight at 2-8° C. Plates were washed between all steps and all subsequent incubations occurred at room temperature. Plates were blocked with 250 μL per well of SuperBlock for 1-3 hours. Test compounds were pre-mixed with compound 43 linked to linker (as shown in FIG. 3) and h38c2 AT 10 ng/mL. Peptide mixtures in 100 μL were then added at the listed final concentrations, then plates sealed, and incubated for 1-2 hours. Bound compounds 43 was detected with 100 uL of a 1:20,000 dilution of HRP-labeled anti-human IgG reagent for solution.

| Binder | IC50 [1] [µM] | IC50 [2] [µM] |
| --- | --- | --- |
| QNYQPLDELDXTLYDQFMLQQG (not fully specified; N-term acyl cap; C-term NH2 cap; 0P linker on K11) [Compound 28 (T): targeting peptide plus 0P linker] | 0.175 |  |
| QXYQPLDELDXTLYDQFMLQQG (not fully specified; N-term acyl cap; C-term NH2 cap; AcK at 2; 0P linker on K11) [Compound 29 (T): targeting peptide plus 0P linker] | 0.0833 |  |
| QXYQPLDELDXTLYDQFMLQQG (N-term acyl cap; C-term NH2 cap; AcK at 2; Dap at 11 carrying the 0P linker) [Compound 55 (T): targeting peptide plus 0P linker] | 0.598 |  |
| QNYQPLDELDK(0P linker)TL[Phe(4-COOH)]DQFMLQQG (not fully specified (N-terminus, C-terminus); printed as QNY QPL DEL DK(0P)T L(CF)D QFM LQQ G; reading uncertain) [Compound 57 (T): targeting peptide plus 0P linker] | 0.11 |  |
| QXYQPLDELDXTLYDQFMLQQG (not fully specified; N-term acyl cap; C-term NH2 cap; AcK at 2; 4P linker on K11) [Compound 24 (T): targeting peptide plus 4P linker] | 0.207 |  |
| QXYQPLDEIDXTLYDQFMLQQG (not fully specified; N-term acyl cap; C-term NH2 cap; AcK at 2; 0P linker on K11) [Compound 37 (T): targeting peptide plus 0P linker] | 1.27 |  |
| QXYQPLDELDXTLFDQFMLQQG (not fully specified; N-term acyl cap; C-term NH2 cap; AcK at 2; 0P linker on K11) [Compound 44 (T): targeting peptide plus 0P linker] | 0.0369 |  |
| QXYQPLDELDXTIYDQFMLQQG (not fully specified; N-term acyl cap; C-term NH2 cap; AcK at 2; 0P linker on K11) [Compound 36 (T): targeting peptide plus 0P linker] | 2.41 |  |
| Ac-QK(Ac)YQPLDEK(Ac)DK(0P linker)TLYDQFMLQ-NH2 (reading uncertain, C-terminal truncation of 43(a) by 2 residues) [Compound 84 (T): targeting peptide plus 0P linker] |  | 0.19 |
| acyl-QK(Ac)YQPLDEK(Ac)DK(0P linker)TL[Phe(4-NO2)]DQFMLQQG-NH2 (reading uncertain; also: printed as Q(AcK)Y QPL DE(AcK) DK(0P)T L(NO2F)D QFM LQQ G) [Compound 48 (T): targeting peptide plus 0P linker] | 0.0824 |  |
| QK(Ac)YQ[Hyp]LDE[ThA]DK(0P linker)TL[Phe(4-NO2)]DQFMLQQG (not fully specified (N-terminus, C-terminus); printed as Q(AcK)Y Q(HP)L DE(ThA) DK(0P)T L(NO2F)D QFM LQQ G; reading uncertain) [Compound 45 (T): targeting peptide plus 0P linker] | 0.0247 |  |
| QXYQPLDEXDXTLYDQFMLQQG (not fully specified; N-term acyl cap; C-term NH2 cap; AcK at 2; 0P linker on K9; AcK at 11) [Compound 30 (T): targeting peptide plus 0P linker] | 0.279 |  |
| Ac-QK(Ac)YQPLDEK(Ac)DK(0P linker)TLYDQFM-NH2 (reading uncertain, C-terminal truncation of 43(a) by 4 residues) [Compound 86 (T): targeting peptide plus 0P linker] |  | 0.847 |
| acyl-QK(Ac)YQ[Hyp]LDE[ThA]DK(0P linker)TL[Bpa]DQFMLQQG-NH2 (reading uncertain) [Compound 46 (T): targeting peptide plus 0P linker] | 0.0827 |  |
| XKYQPLDELDKTLYDQFMLQQG (not fully specified; 0P linker at the N-terminus (no acyl cap); C-term NH2 cap) [Compound 26 (T): targeting peptide plus 0P linker] | 0.0323 |  |
| QXYQXLDELDXTLYDQFMLQQG (not fully specified; N-term acyl cap; C-term NH2 cap; AcK at 2; DHP at 5 (printed D(HP)); 0P linker on K11) [Compound 34 (T): targeting peptide plus 0P linker] | 0.225 |  |
| Ac-QK(Ac)YQPLDEK(Ac)DK(0P linker)TLYDQFML-NH2 (reading uncertain, C-terminal truncation of 43(a) by 3 residues) [Compound 85 (T): targeting peptide plus 0P linker] |  | 0.444 |
| QXYQPLDEXDXTLYDQFMLQQG (N-term ac; C-term am; AcK at 2; AcK at 9; 0P linker on K11) [Compound 43(a) (T): targeting peptide plus 0P linker] |  | 0.139 |
| QXYQXLDELDXTLYDQFMLQQG (not fully specified; N-term acyl cap; C-term NH2 cap; AcK at 2; HP at 5; 0P linker on K11) [Compound 35 (T): targeting peptide plus 0P linker] | 0.121 |  |

| Binder | IC50 [1] [µM] | IC50 [2] [µM] |
| --- | --- | --- |
| QXYQPLDELDXTXYDQFMLQQG (not fully specified; N-term acyl cap; C-term NH2 cap; AcK at 2; 0P linker on K11; HL at 13) [Compound 42 (T): targeting peptide plus 0P linker] | 1.34 |  |
| QXYQPLDELDXTLYDQFMLQQG (not fully specified; N-term acyl cap; C-term NH2 cap; NicK (nicotinyl lysine) at 2; 0P linker on K11, only one IC50 printed, standing in column T) [Compound 61 (T): targeting peptide plus 0P linker] | 0.0839 |  |
| QXYQPLDELDXTLYDQFMLQQG (N-term DCB (dichlorobenzoyl) cap; C-term NH2 cap; AcK at 2; 0P linker on K11) [Compound 49 (T): targeting peptide plus 0P linker] | 0.0284 |  |
| QXYQPLDELDXTXYDQFMLQQG (not fully specified; N-term acyl cap; C-term NH2 cap; AcK at 2; 0P linker on K11; HF at 13) [Compound 39 (T): targeting peptide plus 0P linker] | 4.89 |  |
| acyl-QK(Ac)YQPLDEK(Ac)DK(0P linker)TL[Phe(4-COOH)]DQFMLQQG-NH2 (reading uncertain; also: printed as Q(AcK)Y QPL DE(AcK) DK(0P)T L(CF)D QFM LQQ G) [Compound 62 (T): targeting peptide plus 0P linker] | 0.499 |  |
| acyl-QNYQPLDELDK(0P linker)TL[Bpa]DQFMLQQG-NH2 (reading uncertain; also: printed as QNY QPL DEL DK(0P)T L(BPA)D QFM LQQ G) [Compound 56 (T): targeting peptide plus 0P linker] | 0.0922 |  |
| QXYQPLDELDXTLYDQFMLQQG (N-term acyl cap; C-term NH2 cap; (ClBnCarbamate)K at 2; 0P linker on K11, only one IC50 printed, standing in column T) [Compound 53 (T): targeting peptide plus 0P linker] | 0.147 |  |
| QXYQPLDELDXTLYDQFMLQQG (N-term acyl cap; C-term NH2 cap; AcK at 2; Dab at 11 carrying the 0P linker) [Compound 54 (T): targeting peptide plus 0P linker] | 0.292 |  |
| QK(Ac)YQPLDEK(0P linker)DETLYDQFMLQQG (not fully specified (N-terminus, C-terminus); printed as Q(AcK)Y QPL DEK(0P) DET LYD QFM LQQ G; reading uncertain) [Compound 33 (T): targeting peptide plus 0P linker] | 0.37 |  |
| QXYQPLDELDXTLYDQFMLQQG (not fully specified; N-term amido 2-PEG cap; C-term NH2 cap; AcK at 2; 0P linker on K11) [Compound 52 (T): targeting peptide plus 0P linker] | 0.134 |  |
| QXYQPLDELDXTLYDQFMLQQG (not fully specified; N-term PyC (pyridinyl carboxylate) cap; C-term NH2 cap; AcK at 2; 0P linker on K11) [Compound 51 (T): targeting peptide plus 0P linker] | 0.0143 |  |
| Ac-QK(Ac)YQPLDEK(Ac)DK(0P linker)TLYDQFMLQQ-NH2 (reading uncertain, C-terminal truncation of 43(a) by 1 residue) [Compound 83 (T): targeting peptide plus 0P linker] |  | 0.111 |
| acyl-QK(Ac)YQ[Hyp]LDE[ThA]DK(0P linker)TL[Phe(4-COOH)]DQFMLQQG-NH2 (reading uncertain; also: printed as Q(AcK)Y Q(HP)L DE(ThA) DK(0P)T L(CO2H)FD QFM LQQ G) [Compound 47 (T): targeting peptide plus 0P linker] | 0.0433 |  |
| QNYQPLDELDXTLYDQFMLQQG (not fully specified; N-term acyl cap; C-term NH2 cap; 4P linker on K11) [Compound 25 (T): targeting peptide plus 4P linker] | 0.3 |  |
| QHYQPLDELDXTLYDQFMLQQG (not fully specified; N-term acyl cap; C-term NH2 cap; 0P linker on K11) [Compound 60 (T): targeting peptide plus 0P linker] | 0.214 |  |
| QKYQPLDELDXTLYDQFMLQQG (not fully specified; N-term acyl cap; C-term NH2 cap; 0P linker on K11) [Compound 27 (T): targeting peptide plus 0P linker] | 0.029 |  |
| QRYQPLDELDXTLYDQFMLQQG (not fully specified; N-term acyl cap; C-term NH2 cap; 0P linker on K11) [Compound 59 (T): targeting peptide plus 0P linker] | 0.177 |  |
| QXYQPLDELDXTXYDQFMLQQG (not fully specified; N-term acyl cap; C-term NH2 cap; AcK at 2; 0P linker on K11; Nva at 13) [Compound 41 (T): targeting peptide plus 0P linker] | 1.34 |  |
| QXYQPLDELDXTLYDQFMLQQG (N-term DFB (difluorobenzoyl) cap; C-term NH2 cap; AcK at 2; 0P linker on K11) [Compound 50 (T): targeting peptide plus 0P linker] | 0.033 |  |
